Data reported in article PMC5056459, “Antagonistic roles of Drosophila Tctp and Brahma in chromatin remodelling and stabilizing repeated sequences” (Nature Communications, 2016).

Biological target: T1, GST-Brm 304-747 (Drosophila, UniProt P25439 304-747)
T1 construct: in pGEX5X-1; also called middle part of Brm protein; source: E. coli Rosetta2, extracted and dialysed
Assay: pull-down; GST-Brm fragments as baits, MBP-Tctp as prey, 5 micrograms each; PDB (20 mM Tris-HCl pH 7.5, 150 mM NaCl, 0.5 mM EDTA, 10% glycerol, 0.1% Triton X-100, 1 mM DTT) with 0.2% BSA, 2-3 h at 4 °C; western blot with anti-GST and anti-MBP; proteins extracted from E. coli and dialysed
Conditions: both partners purified

T1 sequence (P25439 304-747): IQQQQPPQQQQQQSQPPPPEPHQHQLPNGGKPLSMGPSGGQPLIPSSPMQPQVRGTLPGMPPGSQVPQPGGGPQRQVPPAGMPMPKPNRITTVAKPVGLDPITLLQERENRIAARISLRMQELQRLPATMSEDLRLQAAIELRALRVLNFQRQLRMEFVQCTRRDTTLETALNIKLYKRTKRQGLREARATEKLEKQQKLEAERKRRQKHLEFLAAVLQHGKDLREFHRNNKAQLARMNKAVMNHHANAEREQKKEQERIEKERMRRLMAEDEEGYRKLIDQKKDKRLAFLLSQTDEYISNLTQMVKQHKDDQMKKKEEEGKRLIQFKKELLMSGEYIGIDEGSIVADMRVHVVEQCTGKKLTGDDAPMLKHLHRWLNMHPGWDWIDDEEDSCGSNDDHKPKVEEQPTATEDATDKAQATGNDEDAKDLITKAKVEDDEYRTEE

- binding result: binds
B1: MBP-Tctp (natural protein, Drosophila, UniProt Q9VGS2 1-172, looked up)
chain: MKIYKDIITGDEMFADTYKMKLVDDVIYEVYGKLITRQGDDIKLEGANASAEEADEGTDITSESGVDVVLNHRLTECFAFGDKKSYTLYLKDYMKKVLAKLEEKSPDQVDIFKTNMNKAMKDILGRFKELQFFTGESMDCDGMVALVEYREINGDSVPVLMFFKHGLEEEKC
notes: Drosophila Tctp in pMAL-c2; also called MBP-tagged Tctp; source: E. coli Rosetta2, extracted and dialysed
